Test system: Nalm6, Sem and Reh cells
Experiment: ASNase and ibrutinib 7 day treatment of ALL cell lines: SubG1, PARP cleavage, amine staining, colony assay
Format: cell-based, human
Conditions: 7 days; 1 IU/ml ASNase, ibrutinib 1 or 10 μM; FIGS. 4D, 4E, 4F & 4H
Protocol: BTK inhibition. […] Cell viability was then measured by cell cycle distribution, (FIGS. 4C & 4D), and by blotting for the apoptosis marker PARP and calculating the ratio between cleaved and uncleaved PARP protein or (FIG. 4E) by amine staining (FIG. 4F).

B1: ASNase: native E. coli ASNase (NCBI WP_000394140.1), used in the in vitro studies (protein, UniProt P00805 23-348, looked up)
L-asparaginase 2: LPNITILATGGTIAGGGDSATKSNYTVGKVGVENLVNAVPQLKDIANVKGEQVVNIGSQDMNDNVWLTLAKKINTDCDKTDGFVITHGTDTMEETAYFLDLTVKCDKPVVMVGAMRPSTSMSADGPFNLYNAVVTAADKASANRGVLVVMNDTVLDGRDVTKTNTTDVATFKSVNYGPLGYIHNGKIDYQRTPARKHTSDTPFDVSKLNELPKVGIVYNYANASDLPAKALVDAGYDGIVSAGVGNGNLYKSVFDTLATAAKTGTAVVRSSRVPTGATTQDAEVDDAKYGFVASGTLNPQKARVLLQLALTQTKDPQQIQQIFNQY
Question: How did the apoptotic killing efficacy turn out when B1 was run?
Answer: relatively small effect

From patent publication US20220362357A1, “Synergistic Combinations of Amino Acid Depletion Agent Sensitizers (AADAS) and Amino Acid Depletion Agents (AADA), and Therapeutic Methods of Use Thereof” (STICHTING RADBOUD UNIVERSITAIR MEDISCH CENTRUM, priority 2018, published 2022)
